Experimental data as given in the supplement of paper PMC12764529.
± gives the half width of the 95% confidence interval.

experiment: folding stability dG unfold from chymotrypsin proteolysis; higher = more stable
Summary of the method: (§1)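 Only designs with AlphaFold2 dimer inter-PAE above 15 were retained; each was a mini-protein under 80 residues with no cysteine, in a PA-tagged cDNA display construct. After digestion with trypsin and chymotrypsin and sequencing, K50 was inferred by Bayesian fitting of counts, and unfolding free energy was derived per protease or combined against a sequence-predicted unfolded-state K50 and a shared folded-state K50.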

Row | Sequence | folding stability dG unfold [kcal/mol]
1 | SAGGWTIREILEKNPNLREFAKEGWTIEIYYPNGKSGRVKIKEGSADDILDDINKNFPGPVEISITKSAGGS [r16_655_TrROS] | 0.437 ± 0.23
2 | SAGPTFEIVSVEEVDGKTYIRIRLPNGRIVTARITEVKRLGPDGKLYIKVEPGMSEEELKALLPPEVLKSAG [r5_462_TrROS_Hall] | 2.825 ± 0.02
3 | SAGGSAGGSAGGSAELLEVLEVTKTGSGYTVKVLERSPELGPSVRTESFPADDTSVLLLSAGGSAGGSAGGS [r4_253_JUSTAS] | -0.384 ± 0.22
4 | SAGGKVKALIIPAPDEPGKPVYLKIIHPDGEIVYPLPNDITEEEAKAAAIELGEENGLDLDEIEIAESAGGS [r16_753_TrMRF] | 0.893 ± 0.065
5 | SAGMVVRITVLPEGEEREFVVAATPEEARELLEELGYEVEEFPELPVLVARRPDAVVLVEFIPVAPDALSAG [r5_248_TrMRF] | 1.999 ± 0.015
6 | SAGIKPGEKIEKVEIVKVEVKKNKDGSKTVTVTIKLKDGKTITIKPGETIEIKIENKKEGEKITLKVKSAGG [r19_199_TrROS_Hall] | 1.91 ± 0.13
7 | SSKIEASATIEGDVITVTLVADSLSDLLAAIKELAEKLGVSFEILSISYKRLPNGKIIATVTARVKPEDLSA [r9_102_TrMRF] | 4.65 ± 0.048
8 | SAGGSAGGSAGGMPGVTTTSTTTTTLPNGTVVTTTTTTVLLPTGTTVTVTVTTTTSATTSSAGGSAGGSAGG [r11_274_JUSTAS] | 2.61 ± 0.088
9 | SAGRIEIDKIEPGKPVRIKIKIEMPDPNGKKRKMDFTRRVRVDPENGMIYIPITMPNGRPIPIMINVKKSAG [r5_743_TrROS] | 0.552 ± 0.43
10 | SAGGMKVRIRIEVDGKTLELELEVEPGETVKITLEVNGEEVTITFDAATGEITIELPPGAKIVEIEPSAGGS [r16_761_TrROS_Hall] | 4.52 ± 0.46
11 | SAGGSAGGSAGKPVTLTDANGTPYSVSQVTTDPNSATVTATFTSPTSSTTHTATYPVTPASAGGSAGGSAGG [r11_290_JUSTAS] | 0.728 ± 0.13
12 | SAGGSAGGSAGGEKEEEEVTVTIYNKETDKVIEITVPKGVTEEEARKKAKELAEELEKKKSAGGSAGGSAGG [r7_957_TrROS_Hall] | -0.316 ± 0.21
13 | SAGGIKPDEPAIVLVKIPLPPGPNPEGGLEGPVLKTFPLEVGFPSLEELIEAVKELFPEGTEVEIIPSAGGS [r16_282_TrMRF] | -0.431 ± 0.13
14 | SAGGSMNPYSETITVNLPVPTPSGGSVVRPVTVPISIVYEDEKELEEALKKAKEEAEAAARKALGLESAGGS [r16_339_JUSTAS] | 0.685 ± 0.069
15 | SAGGSAGGSMTILEEEVVPETGLVRILVKLPNGELLELEVDPSVGVTPVKVDGKPIFDVTVDPSAGGSAGGS [r12_789_JUSTAS] | 1.3 ± 0.082
16 | SAGGSAGGSAGGKKIKIPKKVKVKVVKKKDGKLLVYLEKTGKVIELPVEDLKNITAEDLSAGGSAGGSAGGS [r10_709_TrROS_Hall] | -0.63 ± 0.3

experiment: folding stability dG unfold (combined trypsin and chymotrypsin); higher = more stable
Summary of the method: as §1

Row | Sequence | folding stability dG unfold [kcal/mol]
17 | SAGGGPPAKPVYLTVTVTTEDPVETAKKVEEEVKKLFPDAEILKVEVKKNPETNLYTVTVYVKKLVKSAGGS [r8_120_TrMRF] | 4.3 ± 0.092
18 | SAGGSAGGSAGTEIKIPPEFPDLPVKVYPIEVTLLGKGKPKKVILNVATTPDAIIAVDPESAGGSAGGSAGG [r11_21_TrMRF] | -0.623 ± 0.2
19 | SAGMEITVPGPFLSQEVFDLPDRPYLVLPTPEGIAVIDLVTGEAVFYPFGTTEPIVVPVPPGEELDLLSAGG [r19_138_TrMRF] | 1.83 ± 0.088
20 | SAGGSGKEFEVEKAVFIPLPDDRKLIIVKTKTSIQIVEYNGEEWKLVATYPYKDVPKNPRELLKKKSAGGSA [r2_133_TrMRF] | 0.929 ± 0.22
21 | SAGGMSFTMTVPPSNPNQVVGTNVPVSDVPPNYAYTLHFPNTGTTTTIPVSQAEEVKAQPHIDEITATSAGG [r19_302_JUSTAS] | 0.486 ± 0.04
22 | SAGGSAGGSKKKKKKVKKKKVYRVKIKTKDGKLIEIEVSVEDLEKIKKAAEKAGFEIVEIEPVSAGGSAGGS [r12_891_TrROS_Hall] | 3.42 ± 0.2
23 | SAGGSAGGSMKITKIEVEENEDGTLTVRLELEFVDPETKETYRVELEITVSKEELEKLLEALKSAGGSAGGS [r12_691_TrROS_Hall] | 3.9 ± 0.23
24 | SAGGSSEIVELKSIEKKGNSVILTLESKTNDYKVVVVIEGNKIRAYVFDKNGNIIAEFEFDGHPYLSAGGSA [r2_437_TrMRF] | 3.15 ± 0.15
25 | SAGGSAGGTISFPNATATITVEENSVTITVTNADGQPTTFTIPLPIPKAKPFTLPDGTKLYLIASAGGSAGG [r6_806_TrMRF] | 2.31 ± 0.21
26 | SAGGSLELPEGAKVEVEVEIEEVDDDTVKIKVKVKFTFINEDGEPETFEAEFEFEIPKEEAEELLGSAGGSA [r2_226_TrMRF] | 3.32 ± 0.13
27 | SAGGSAGGSWMYKKNPDGKLEPLPPIRPVPIKIPVPINGRWIPVPIWMTVADIDYIIKEFLKNSAGGSAGGS [r20_148_TrROS] | 1.41 ± 0.15
28 | SAGGMPPEELEAASLEERIARVRAAGLETATVRRPDGSTLTIDLGEEGPVTITTTTPPGETTTATLPSAGGS [r8_51_JUSTAS] | 0.654 ± 0.08
29 | SAGGSAGGSAFQIEDLKIEKVEFNPDGMVHNELEITLPGGKELEVSIMIDPKKPGKLMIMIVSAGGSAGGSA [r18_97_TrROS] | 1.66 ± 0.31
30 | SENWEPEPITFPDGITIWVMPDYGMIDIIDPDKGTFEMFMIRVDPNGKPEINPLTFKLDPPNGKIKDITPSA [r9_122_TrROS] | 0.49 ± 0.26
31 | SAGGMVLVEPSPDAVVRVIEREGDLARVTVYDPRSGARTVELVPIAPTGKGGVRLETLEVRVLPDAEASAGG [r13_556_JUSTAS] | -0.0934 ± 0.057
32 | SAGGWTIREILEKNPNLREFAKEGWTIEIYYPNGKSGRVKIKEGSADDILDDINKNFPGPVEISITKSAGGS [r16_655_TrROS] | 0.573 ± 0.14

Row | Sequence | folding stability dG unfold [kcal/mol]
33 | SAGPTFEIVSVEEVDGKTYIRIRLPNGRIVTARITEVKRLGPDGKLYIKVEPGMSEEELKALLPPEVLKSAG [r5_462_TrROS_Hall] | 2.63 ± 0.042
34 | SAGGSAGGSAGGSAELLEVLEVTKTGSGYTVKVLERSPELGPSVRTESFPADDTSVLLLSAGGSAGGSAGGS [r4_253_JUSTAS] | -0.0527 ± 0.1
35 | SAGGKVKALIIPAPDEPGKPVYLKIIHPDGEIVYPLPNDITEEEAKAAAIELGEENGLDLDEIEIAESAGGS [r16_753_TrMRF] | 0.746 ± 0.099
36 | SAGMVVRITVLPEGEEREFVVAATPEEARELLEELGYEVEEFPELPVLVARRPDAVVLVEFIPVAPDALSAG [r5_248_TrMRF] | 1.83 ± 0.039
37 | SAGIKPGEKIEKVEIVKVEVKKNKDGSKTVTVTIKLKDGKTITIKPGETIEIKIENKKEGEKITLKVKSAGG [r19_199_TrROS_Hall] | 1.74 ± 0.16
38 | SSKIEASATIEGDVITVTLVADSLSDLLAAIKELAEKLGVSFEILSISYKRLPNGKIIATVTARVKPEDLSA [r9_102_TrMRF] | 4.277 ± 0.039
39 | SAGGSAGGSAGGMPGVTTTSTTTTTLPNGTVVTTTTTTVLLPTGTTVTVTVTTTTSATTSSAGGSAGGSAGG [r11_274_JUSTAS] | 2.68 ± 0.12
40 | SAGRIEIDKIEPGKPVRIKIKIEMPDPNGKKRKMDFTRRVRVDPENGMIYIPITMPNGRPIPIMINVKKSAG [r5_743_TrROS] | 0.619 ± 0.29
41 | SAGGMKVRIRIEVDGKTLELELEVEPGETVKITLEVNGEEVTITFDAATGEITIELPPGAKIVEIEPSAGGS [r16_761_TrROS_Hall] | 4.01 ± 0.39
42 | SAGGSAGGSAGKPVTLTDANGTPYSVSQVTTDPNSATVTATFTSPTSSTTHTATYPVTPASAGGSAGGSAGG [r11_290_JUSTAS] | 0.791 ± 0.14
43 | SAGGSAGGSAGGEKEEEEVTVTIYNKETDKVIEITVPKGVTEEEARKKAKELAEELEKKKSAGGSAGGSAGG [r7_957_TrROS_Hall] | -0.00187 ± 0.19
44 | SAGGIKPDEPAIVLVKIPLPPGPNPEGGLEGPVLKTFPLEVGFPSLEELIEAVKELFPEGTEVEIIPSAGGS [r16_282_TrMRF] | 0.455 ± 0.1
45 | SAGGSMNPYSETITVNLPVPTPSGGSVVRPVTVPISIVYEDEKELEEALKKAKEEAEAAARKALGLESAGGS [r16_339_JUSTAS] | 1.05 ± 0.11
46 | SAGGSAGGSMTILEEEVVPETGLVRILVKLPNGELLELEVDPSVGVTPVKVDGKPIFDVTVDPSAGGSAGGS [r12_789_JUSTAS] | 1.19 ± 0.11
47 | SAGGSAGGSAGGKKIKIPKKVKVKVVKKKDGKLLVYLEKTGKVIELPVEDLKNITAEDLSAGGSAGGSAGGS [r10_709_TrROS_Hall] | 0.408 ± 0.094
